Values quoted from earlier work as cited in patent publication US7897835B2, “Expression vectors pSSA-K and pSSA-H for expression of SOD and APX in plants to provide stress tolerance” (Korea Research Institute of Bioscience and Biotechnology, priority 2004, dated 2011).

Tested on: tobacco protoplast
Conditions: transient assay with GUS protein

B1: SWPA2 promoter: oxidative stress inducible peroxidase promoter isolated from sweetpotato (Ipomoea batatas), SEQ. ID. No 15 (nucleic acid)
DNA: AAGCTTCCATGATCAGATCGATAATACCAAATGGTACCACCTAACTAGGTGATATATATTATGTATGTCATTATTTTAAACTGTATTACAAAGACTATTTTTTCATTAATTGGTACAAAGAAAAATTAAACAGAAAAGAAAGGAAAAAATGACTCACCACCTAGCACCTAGACACCTAGACACCAAGTACCCAAACCCTCTATTTTCAACATCTATTTTCAGATGTAAATATGAGTTGGACGAAGAAGGTGTTAGCAATTATTTGATTAATCTTGCTACGATAATTATGATCCACTCACTTAGTCATTTTTTTCAGACCAAGACAACTAGCTTGAGTTTTTTATTGTATGTGGTCGGAACGTTTTTTGTAATTAAAAAAATAAAAGTTGCATCATTATATATGGTAGATTAAGTAATTGATCAATCAACGTTTAATTTTGCATTTATCGGCAAGGTGGAGGTTCCAACTTCCAGTCGAACTTAGAGAGTCATTGGAGACCTTGACCAGTTAACTAGCGGTGTCGAAAACCTGCACAACTTGAGATTTAATTGCATACCTTTTATATATGACGCGTTTTATTTTTTTTTCCTAGAAAATAATTTGGAAGAAAATAAGAATATGTATTCTGTGAAAGCTAGGCCAAAACGAATGTCTTTTCGTCGTTTTCGTTAAAGGTTTAGATCATATTTCATCTGGTCCAACACTCAAACTTGTATAATGGACGAATTATTAGTCATTTTAGACCTACCGGCTAGCGCGACTTTTTTGTTTTCCATAAAGATTCGATAATTGCATGGCCAGATGCAAAGTTTGAAATTTAATGTTTGCCAAATCCTATCATACACCACAACACATGTCTCAGGGCCAAGTGGCACCAGCAAACATTCCTGTCATAATTAATTTTTTTAATGAGAAGGAGGAAACTCACAGCTATTACTCGAAGGTATATAATATTGAGTAAATCTTACTTTGTGATTCTAGTTGACAAAACACCGCAAGATAAACTATACTAAGTTCAAATCACCTCACCGGGTTGGCTCAGATTGGTTTTTTCAATACAAGAGGGGGTGTGAACTCCCGTGCCGACCTCTTTTGAGGGACAATAATGTACGGTCACGCCAACCTAGCTTGATTTTTTCTGACAAATATATTACTACATATATTACACGGTCAAATAATTAATCAAAAAATAAAAAAAGACCCCAATTAAAGTCCCCAACCACTCTCAAATATTCTATTTAAGGGAAACCTTAGAGGCAATTCATGCATCCTCAACCCCTTCTTCTTCATTTTCTTAATCTTACATTTTCCTTTGACCCTCGAG
modifications: Ipomoea batatas
In the case of B1, the “promoter activity relative to CaMV 35S promoter” value is given as “at least 30 fold”.
